Test results taken from patent publication EP3597215A1 (dated 2020).

Molecular target: prostate-specific membrane antigen (PSMA) (UniProt Q04609 1-750, limits assumed)
Assay: cell-based or functional assay

Chain of prostate-specific membrane antigen (PSMA) (Q04609 whole entry): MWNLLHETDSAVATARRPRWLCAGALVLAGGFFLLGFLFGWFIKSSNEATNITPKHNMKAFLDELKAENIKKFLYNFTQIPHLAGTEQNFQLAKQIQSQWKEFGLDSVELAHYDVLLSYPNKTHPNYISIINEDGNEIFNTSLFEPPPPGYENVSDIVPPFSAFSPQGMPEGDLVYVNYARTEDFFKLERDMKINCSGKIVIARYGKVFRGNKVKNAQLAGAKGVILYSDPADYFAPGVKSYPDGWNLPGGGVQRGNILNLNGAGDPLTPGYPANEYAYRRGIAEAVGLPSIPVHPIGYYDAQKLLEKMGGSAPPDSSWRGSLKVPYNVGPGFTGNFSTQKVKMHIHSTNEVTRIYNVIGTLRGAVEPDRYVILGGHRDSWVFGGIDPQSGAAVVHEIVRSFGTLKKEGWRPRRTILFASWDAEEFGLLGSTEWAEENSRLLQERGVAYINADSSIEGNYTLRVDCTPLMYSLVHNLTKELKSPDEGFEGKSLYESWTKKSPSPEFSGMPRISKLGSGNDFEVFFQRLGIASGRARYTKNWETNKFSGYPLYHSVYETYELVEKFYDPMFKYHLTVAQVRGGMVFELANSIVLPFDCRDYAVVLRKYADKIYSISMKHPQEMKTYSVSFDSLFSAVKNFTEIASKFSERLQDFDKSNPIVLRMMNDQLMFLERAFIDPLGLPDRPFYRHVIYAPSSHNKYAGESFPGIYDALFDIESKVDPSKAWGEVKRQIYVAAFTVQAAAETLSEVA

long-term T cell proliferation (expansion over 31 days) of 19z1+P28BB T cells on AAPCs expressing CD19 and PSMA: 58 fold
B1: P28BB (anti-PSMA chimeric costimulatory receptor) (other)
chain: EVQLQQSGPELVKPGTSVRISCKTSGYTFTEYTIHWVKQSHGKSLEWIGNINPNNGGTTYNQKFEDKATLTVDKSSSTAYMELRSLTSEDSAVYYCAAGWNFDYWGQGTTVTVSSGGGGSGGGGSGGGGSDIVMTQSHKFMSTSVGDRVSIICKASQDVGTAVDWYQQKPGQSPKLLIYWASTRHTGVPDRFTGSGSGTDFTLTITNVQSEDLADYFCQQYNSYPLTFGAGTMLDLKRAAAIEVMYPPPYLDNEKSNGTIIHVKGKHLCPSPLFPGPSKPFWVLVVVGGVLACYSLLVTVAFIIFWVRSKRSRLLHSDYMNMTPRRPGPTRKHYQPYAPPRDFAAYRSRFSVVKRGRKKLLYIFKQPFMRPVQTTQEEDGCSCRFPEEEEGGCE
